This is an account of results in paper PMC9483561.

The experiment concerns the target integrin α5β1 headpiece (α5 F1–L609/β1 Q1–E481) (UniProt P05556). In words: fluorescence polarisation.

For the substance “fibronectin fragment Fn7–10 (P1142–T1509) (from UniProt P02751-1 1173-1540) (domain or fragment)”, the equilibrium dissociation constant (Kd) came out at 30 nM. For “fibronectin fragment Fn9–10 (G1326–T1509) (from UniProt P02751-1 1357-1540) (domain or fragment)” the value was 30 nM.

Broadly, the Kd is the constant that tells how readily two partners part at equilibrium. A lower Kd goes with a tighter complex.
